In the supplement of paper PMC10126150:
± gives the standard deviation of the averaged measurements.

System: ATP
Assay: switch fluorescence ratio, 500 uM ATP over buffer (Cy3 cluster intensity, sum of 5 cycles each) (fold (ratio)); higher = stronger signal-on switching upon ATP binding; sequences stand for … in TCGTCGGCAGCGTCAGATGTGTATAAGAGACAGTTTTTTTTTTTTTTTTTTTTTTTTT…TC
Details: aptamer strand: ATP DNA aptamer (quencher-CACCTGGGGGAGTATTGCGGAGGAAGG + anchor), 100 nM annealed; ATP concentration: 500 uM
Summary of the method: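 Switching-strand clusters labelled with Cy3 on a modified Illumina MiSeq flow-cell were annealed to 100 nM quencher-labelled ATP aptamer, imaged in selection buffer, and re-imaged after 15 min with 500 uM ATP at 22 °C. This was done over five cycles with NaOH stripping and re-annealing in between. The fluorescence ratio is summed target-cycle over summed buffer-cycle Cy3 intensity per cluster, averaged per switch-domain sequence, excluding clusters outside 100-1000 RFU.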
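Note: ATP exposure 15 min at 22 °C before imaging.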

Row | Sequence | switch fluorescence ratio
1 | TGGGGGTTG | 1 ± 0.032
2 | TGGGGGTTTG | 0.993 ± 0.021
3 | TGGGGTATAT | 0.996 ± 0.015
4 | TGGGGTGCGG | 0.975 ± 0.026
5 | TGGGGTGCTG | 1.05 ± 0.016
6 | TGGGGTGGGA | 0.991 ± 0.029
7 | TGGGGTGGGG | 1.05 ± 0.09
8 | TGGGGTGTCT | 0.993 ± 0.039
9 | TGGGGTTACT | 1.01 ± 0.015
10 | TGGGGTTCAT | 0.985 ± 0.025
11 | TGGGGTTCGG | 1 ± 0.079
12 | TGGGGTTCTA | 0.992 ± 0.026
13 | TGGGGTTGCC | 0.96 ± 0.026
14 | TGGGGTTGGC | 1.17 ± 0.34
15 | TGGGTAAACG | 1.023 ± 0.0035
16 | TGGGTAAGGA | 1 ± 0.026
17 | TGGGTAATGT | 1.01 ± 0.023
18 | TGGGTAATTT | 1.03 ± 0.055
19 | TGGGTACAGC | 1.02 ± 0.04
20 | TGGGTAGGTC | 1.014 ± 0.0014
21 | TGGGTAGTAA | 0.993 ± 0.016
22 | TGGGTATCGG | 0.994 ± 0.021
23 | TGGGTATCGT | 0.977 ± 0.029
24 | TGGGTATTAC | 1.14 ± 0.26
25 | TGGGTCAATG | 0.9822 ± 0.0078

Row | Sequence | switch fluorescence ratio
26 | TGGGTCCAAA | 1.006 ± 0.0076
27 | TGGGTCGCCG | 0.964 ± 0.012
28 | TGGGTCTAAG | 0.9669 ± 0.0093
29 | TGGGTCTAGA | 0.975 ± 0.023
30 | TGGGTCTTGA | 1.001 ± 0.0062
31 | TGGGTGAAAG | 1.02 ± 0.02
32 | TGGGTGAGGA | 1.04 ± 0.054
33 | TGGGTGATTA | 0.9846 ± 0.005
34 | TGGGTGCGTC | 0.988 ± 0.014
35 | TGGGTGGAAG | 1.042 ± 0.01
36 | TGGGTGGATC | 1.02 ± 0.056
37 | TGGGTGTATC | 1.004 ± 0.0022
38 | TGGGTGTGG | 1.015 ± 0.0075
39 | TGGGTGTTGT | 1.01 ± 0.034
40 | TGGGTTATTA | 1 ± 0.018
41 | TGGGTTCAGC | 1 ± 0.011
42 | TGGGTTCTGT | 0.974 ± 0.0099
43 | TGGGTTGCGT | 1.01 ± 0.017
44 | TGGGTTGGAG | 0.9949 ± 0.0067
45 | TGGGTTTATG | 1 ± 0.03
46 | TGGGTTTGGA | 1.03 ± 0.049
47 | TGGGTTTTGT | 1.01 ± 0.029
48 | TGGTAAACGC | 1.03 ± 0.05
49 | TGGTAAAGGG | 0.991 ± 0.034
50 | TGGTAATGGA | 0.958 ± 0.046

Row | Sequence | switch fluorescence ratio
51 | TGGTAATGGT | 1.03 ± 0.074
52 | TGGTAATTTT | 0.998 ± 0.017
53 | TGGTAGAAGT | 0.988 ± 0.022
54 | TGGTAGATGG | 1 ± 0.022
55 | TGGTAGGAGG | 1.002 ± 0.0056
56 | TGGTAGGGGT | 1 ± 0.014
57 | TGGTAGGTGA | 0.997 ± 0.025
58 | TGGTATAGGC | 1.04 ± 0.027
59 | TGGTATCTTA | 1.026 ± 0.0098
60 | TGGTATGGTA | 0.9969 ± 0.0099
61 | TGGTCCACTG | 1.009 ± 0.0057
62 | TGGTCGGTAG | 0.9855 ± 0.0023
63 | TGGTCTAGGA | 1.01 ± 0.011
64 | TGGTCTTTTC | 0.986 ± 0.02
65 | TGGTGAAACC | 1.013 ± 0.0035
66 | TGGTGAAAGC | 0.991 ± 0.022
67 | TGGTGATGCA | 1.08 ± 0.11
68 | TGGTGATGCG | 0.998 ± 0.064
69 | TGGTGATTGT | 1.02 ± 0.017
70 | TGGTGCATGC | 0.957 ± 0.019
71 | TGGTGGAAAA | 0.973 ± 0.02
72 | TGGTGGATCT | 0.9904 ± 0.0063
73 | TGGTGGCGCG | 0.976 ± 0.027
74 | TGGTGGCGG | 0.952 ± 0.037
75 | TGGTGGCTTT | 0.996 ± 0.015

Row | Sequence | switch fluorescence ratio
76 | TGGTGGGACG | 1.06 ± 0.14
77 | TGGTGGGGG | 1.01 ± 0.051
78 | TGGTGGGTAC | 1.03 ± 0.084
79 | TGGTGGGTGG | 1.03 ± 0.058
80 | TGGTGGTGTC | 0.985 ± 0.05
81 | TGGTGTATTT | 1.01 ± 0.011
82 | TGGTGTGATG | 1.007 ± 0.0026
83 | TGGTGTGGGG | 0.993 ± 0.021
84 | TGGTGTGGTT | 1.02 ± 0.021
85 | TGGTGTGTCA | 1.005 ± 0.0092
86 | TGGTTAAACT | 0.98 ± 0.027
87 | TGGTTAACGC | 0.999 ± 0.013
88 | TGGTTACATC | 1.04 ± 0.015
89 | TGGTTACCCC | 1.001 ± 0.01
90 | TGGTTACGTC | 0.985 ± 0.026
91 | TGGTTCAGCC | 0.9868 ± 0.0033
92 | TGGTTCATGT | 0.9939 ± 0.008
93 | TGGTTCTATT | 1.02 ± 0.064
94 | TGGTTGAAAT | 0.975 ± 0.028
95 | TGGTTGCAGC | 1 ± 0.055
96 | TGGTTGCTAA | 1.01 ± 0.02
97 | TGGTTGG | 0.994 ± 0.0015
98 | TGGTTGGAGT | 1.006 ± 0.0035
99 | TGGTTGGATC | 0.984 ± 0.019
100 | TGGTTGGGCA | 0.993 ± 0.055
